Measured values reported in the supplement of paper PMC9112550, “Optimization of the antimicrobial peptide Bac7 by deep mutational scanning” (BMC Biology, 2022).

test system: Escherichia coli TOP10; assay: shrunken log2 fold change of peptide-encoding DNA abundance (4.5 h post-induction vs induction); higher = less antimicrobial activity (less host growth inhibition); details: time post-induction: 4.5 h; library: site-saturation at positions 5, 18, 19, 20
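Note: peptides expressed intracellularly from a pBAD plasmid library in pooled LB shake-flask culture, induced with 0.3% L-arabinose, DNA abundance read by NGS, three biological replicates, DESeq2 with apeglm shrinkage.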

Sequence | shrunken log2 fold change
RRIRNRPPRLPRPRPRPTVDPRP | 0.0566
RRIRVRPPRLPRPRPRPNNKPRP | -0.472
RRIRIRPPRLPRPRPRPYIRPRP | -0.159
RRIRVRPPRLPRPRPRPYYGPRP | -0.203
RRIRSRPPRLPRPRPRPFANPRP | -0.0026
RRIRLRPPRLPRPRPRPFHKPRP | -0.54
RRIRERPPRLPRPRPRPMCNPRP | -0.0237
RRIRMRPPRLPRPRPRPTSDPRP | 0.055
RRIRNRPPRLPRPRPRPSAIPRP | -0.354
RRIRKRPPRLPRPRPRPMYTPRP | -0.0983
RRIRMRPPRLPRPRPRPGSKPRP | 0.479
RRIRWRPPRLPRPRPRPRAIPRP | 0.539
RRIRSRPPRLPRPRPRPYYLPRP | -0.7
RRIRLRPPRLPRPRPRPRIMPRP | -0.333
RRIRMRPPRLPRPRPRPFAHPRP | -0.00592
RRIRPRPPRLPRPRPRPRFTPRP | 0.116
RRIRRRPPRLPRPRPRPMYDPRP | -0.267
RRIRNRPPRLPRPRPRPPCHPRP | -0.386
RRIRQRPPRLPRPRPRPPPDPRP | 0.701
RRIRMRPPRLPRPRPRPNSTPRP | 0.0221

Sequence | shrunken log2 fold change
RRIRHRPPRLPRPRPRPKWCPRP | -0.142
RRIRMRPPRLPRPRPRPQYAPRP | 0.0122
RRIRVRPPRLPRPRPRPRRQPRP | 0.0745
RRIRKRPPRLPRPRPRPEGRPRP | 0.261
RRIRPRPPRLPRPRPRPYSPPRP | -1.23
RRIRNRPPRLPRPRPRPYKPPRP | -0.0731
RRIRERPPRLPRPRPRPRAHPRP | 0.352
RRIRARPPRLPRPRPRPKPSPRP | 0.524
RRIRERPPRLPRPRPRPCQEPRP | -0.181
RRIRRRPPRLPRPRPRPVHIPRP | -0.0107
RRIRRRPPRLPRPRPRPYWRPRP | 0.0363
RRIRHRPPRLPRPRPRPKMQPRP | -0.121
RRIRRRPPRLPRPRPRPHCIPRP | 0.0457
RRIRPRPPRLPRPRPRPTCRPRP | 0.418
RRIRRRPPRLPRPRPRPWPHPRP | -0.0473
RRIRERPPRLPRPRPRPSDRPRP | -0.165
RRIRARPPRLPRPRPRPGTWPRP | 0.161
RRIRRRPPRLPRPRPRPHPHPRP | 0.147
RRIRERPPRLPRPRPRPQSRPRP | 0.00145
RRIRCRPPRLPRPRPRPSFFPRP | -0.552

Sequence | shrunken log2 fold change
RRIRHRPPRLPRPRPRPEYCPRP | -0.201
RRIRHRPPRLPRPRPRPDIYPRP | 0.027
RRIRQRPPRLPRPRPRPTRGPRP | 0.287
RRIRDRPPRLPRPRPRPYYWPRP | -0.184
RRIRIRPPRLPRPRPRPMKKPRP | 0.0138
RRIRFRPPRLPRPRPRPEDPPRP | 0.379
RRIRVRPPRLPRPRPRPMCWPRP | 0.00173
RRIRGRPPRLPRPRPRPMCKPRP | 0.886
RRIRGRPPRLPRPRPRPYIAPRP | -0.391
RRIRQRPPRLPRPRPRPQCSPRP | -0.203
RRIRSRPPRLPRPRPRPTNRPRP | -0.362
RRIRCRPPRLPRPRPRPAFVPRP | 0.179
RRIRYRPPRLPRPRPRPIMEPRP | -0.0134
RRIRCRPPRLPRPRPRPHWCPRP | -0.155
RRIRNRPPRLPRPRPRPFGIPRP | -0.0138
RRIRSRPPRLPRPRPRPGDHPRP | -0.338
RRIRIRPPRLPRPRPRPKGCPRP | -0.00865
RRIRERPPRLPRPRPRPAVDPRP | 0.116
RRIRNRPPRLPRPRPRPGIPPRP | -0.0284
RRIRMRPPRLPRPRPRPKFGPRP | -0.0062
